Data reported in patent US20180282719A1 (published 2018).
Numbering of substitutions follows the chain as printed. Each block holds one binder with its values, some of them ahead of it.

What was measured:
[1] = molecular target: T1, recombinant soluble human IL-6 receptor (SR344) (human, UniProt P08887 20-344, biotinylated (sites not given) where immobilized via streptavidin or used in phage ELISA); test: SPR Biacore T100, antibody on protein A/G chip, SR344 analyte, pH 7.4, 37 C
T1 construct: also called soluble IL-6 receptor; membrane-type IL-6 receptor (when biotinylated and immobilized on the chip)
T1 sequence (looked up): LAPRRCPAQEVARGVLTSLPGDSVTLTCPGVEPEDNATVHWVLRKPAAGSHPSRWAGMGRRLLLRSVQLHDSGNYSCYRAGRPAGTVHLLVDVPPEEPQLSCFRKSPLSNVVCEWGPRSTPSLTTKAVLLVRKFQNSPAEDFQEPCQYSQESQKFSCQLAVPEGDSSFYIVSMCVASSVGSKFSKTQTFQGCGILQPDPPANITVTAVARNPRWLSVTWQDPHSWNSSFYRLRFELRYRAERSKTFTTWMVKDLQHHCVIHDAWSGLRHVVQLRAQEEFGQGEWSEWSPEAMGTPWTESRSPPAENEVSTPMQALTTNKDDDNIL
Procedure: (§1) Kinetic analysis of antigen-antibody reactions at pH 7.4 and pH 5.8 was carried out using a Biacore T100™ surface plasmon resonance system (GE Healthcare) for the four types of antibodies prepared: WT-IgG1, H54/L28-IgG1, H170/L82-IgG1, and Fv4-IgG1 (buffer: 10 mM MES (pH 7.4 or pH 5.8), 150 mM NaCl, 0.05% Surfactant P20 (polyoxyethelene sorbitan monolaurate)). The antibodies were bound to a sensor chip on which recomb-protein A/G (Pierce) was immobilized by amine coupling, and SR344 adjusted to an appropriate concentration was injected therein as an analyte. The association with and dissociation from SR344 of each type of antibody were observed on a real-time basis. All the measurements were carried out at 37° C. Association rate constants kₐ (1/Ms) and dissociation rate constants kd (1/s) were calculated using Biacore T100™ Evaluation Software (GE Healthcare), and dissociation constants KD (M) were calculated based on those values (Table 17).

[2] = molecular target: T1, recombinant soluble human IL-6 receptor …; test: SPR Biacore T100, antibody on protein A/G chip, SR344 analyte, 37 C, ratio of pH 5.8 to pH 7.4
Procedure: as §1

[3] = molecular target: T1, recombinant soluble human IL-6 receptor …; test: SPR Biacore T100, antibody on protein A/G chip, SR344 analyte, pH 5.8, 37 C
Procedure: as §1

[4] = molecular target: T1, recombinant soluble human IL-6 receptor …; test: SPR Biacore T100, antibody captured by anti-IgG gamma chain F(ab)2, SR344 analyte, pH 7.4, 37 C
Procedure: Kinetic analyses of antigen-antibody reactions at pH 7.4 were carried out on the four types of antibodies, i.e., the humanized PM1 antibody (wild type: WT), and […], H3pI/L73-IgG1, Fv2-IgG1, and Fv4-IgG1 constructed in Examples 2 and 10, by using a Biacore T100™ surface plasmon resonance system (GE Healthcare) (buffer: 10 mM MES (pH 7.4), 150 mM NaCl, 0.05% TWEEN® 20 (polyoxyethelene sorbitan monolaurate)). Each antibody was bound on a sensor chip on which an anti-IgG γ chain specific F(ab)₂ (Pierce) was immobilized by amine coupling, and then, SR344 adjusted to a concentration of 9.8 to 40 nM was injected thereto as an analyte. The association to and dissociation from SR344 were observed on a real-time basis for the pH-dependent-binding clones. All the measurements were carried out at 37° C. Association rate constants kₐ (1/Ms) and dissociation rate constants kd (1/s) were calculated using Biacore T100™ Evaluation Software (GE Healthcare), and dissociation constants KD (M) were calculated on the basis of those values (Table 7).
The association to and dissociation from SR344 were observed on a real-time basis using the same method as Example 10 for the eleven types of antibodies, humanized PM1 antibody (wild type: WT) and H3pI/L73-IgG1, Fv1-M71, Fv1-M73, Fv2-IgG1, Fv3-M71, Fv3-M73, Fv4-IgG1, Fv4-IgG2, Fv4-M58, and Fv4-M73, constructed as described above. The association rate constants kₐ (1/Ms) and dissociation rate constants kd. (1/s) were calculated by analysis in the same manner, and the dissociation constants KD (M) were calculated on the basis of those values (Table 11).

[5] = molecular target: T1, recombinant soluble human IL-6 receptor …; test: SPR Biacore T100, biotinylated SR344 on streptavidin chip (model of membrane-type IL-6 receptor), antibody as analyte, 37 C
Procedure: (§2) Binding to the membrane-type IL-6 receptor was evaluated by evaluating binding to the IL-6 receptor immobilized on a sensor chip. SR344 was biotinylated in accordance with a method known among persons with ordinary skill in the art, and the biotinylated SR344 was immobilized on the sensor chip via streptavidin using the affinity between streptavidin and biotin. All the measurements were carried out at 37° C. The mobile phase buffer was 10 mM MES (pH 5.8), 150 mM NaCl and 0.05% TWEEN® 20 (polyoxyethelene sorbitan monolaurate).
(§3) The pH-dependently-binding clones were injected under the condition of pH 7.4 to allow them to bind to SR344, and then, the pH-dependent dissociation of each clone at the pH of the mobile phase, pH 5.8, was observed. The results are shown in FIG. 21 (results for Fv1-M71, Fv1-M73, Fv3-M71, and Fv3-M73 are shown in FIG. 21, while results for other clones are shown in FIGS. 17 and 19). Analyses were carried out in the same manner as in Example 10 and the pH dependencies of the dissociation rate constants of all of the eleven types of clones are shown in Table 12.

[6] = molecular target: T1, recombinant soluble human IL-6 receptor …; test: SPR Biacore T100, biotinylated SR344 on streptavidin chip (model of membrane-type IL-6 receptor), antibody as analyte, bound at pH 7.4, dissociation at pH 7.4, 37 C
Procedure: as §2, §3

[7] = molecular target: T1, recombinant soluble human IL-6 receptor …; test: SPR Biacore T100, biotinylated SR344 on streptavidin chip (model of membrane-type IL-6 receptor), antibody as analyte, bound at pH 7.4, dissociation at pH 5.8, 37 C
Procedure: as §2, §3

Kd [1]: 1.7 nM | koff [1]: 0.0014 s⁻¹ | kon [1]: 830000 M⁻¹ s⁻¹ | KD (pH 5.8)/KD (pH 7.4) [2]: 0.7 | kd (pH 5.8)/kd (pH 7.4) [2]: 2 | Kd [3]: 1.1 nM | koff [3]: 0.0027 s⁻¹ | kon [3]: 2.4e+06 M⁻¹ s⁻¹
B1: H54/L28-IgG1 (antibody, V domains shown)
VH: QVQLQESGPGLVKPSETLSLTCAVSGYSISDDQAWSWVRQPPGEGLEWIGYISYSGITNYNPSLKGRVTISRDTSKNQFSLKLSSVTAADTAAYYCARSLARTTAMDYWGEGTLVTVSS
VL: DIQMTQSPSSLSASVGDSVTITCQASQDISSYLNWYQQKPGKAPELLIYYGSELHSGVPSRFSGSGSGTDFTFTISSLEAEDAATYYCQQGNSLPYTFGQGTKVEIE
notes: IgG1

Kd [4]: 1 nM | koff [4]: 0.00087 s⁻¹ | kon [4]: 850000 M⁻¹ s⁻¹ | kd (pH 5.8)/kd (pH 7.4) [5]: 10.9 | koff [6]: 0.00049 s⁻¹ | koff [7]: 0.0053 s⁻¹
B2: Fv3-M73 (antibody)
heavy: QVQLQESGPGLVKPSETLSLTCAVSGHSISHDHAWSWVRQPPGEGLEWIGFISYSGITNYNPTLQGRVTISRDNSKNTLYLQMNSLRAEDTAVYYCARSLARTTAMDYWGEGTLVTVSSASTKGPSVFPLAPSSKSTSGGTAALGCLVKDYFPEPVTVSWNSGALTSGVHTFPAVLQSSGLYSLSSVVTVPSSNFGTQTYTCNVDHKPSNTKVDKTVERKSCVECPPCPAPPVAGPSVFLFPPKPKDTLMISRTPEVTCVVVDVSQEDPEVQFNWYVDGVEVHNAKTKPREEQFNSTFRVVSVLTVVHQDWLNGKEYKCKVSNKGLPAPIEKTISKTKGQPREPQVYTLPPSQEEMTKNQVSLTCLVKGFYPSDIAVEWESNGQPENNYKTTPPMLDSDGSFFLYSKLTVDKSRWQEGNVFSCSVMHEALHAHYTQKSLSLSP
light: DIQMTQSPSSLSASVGDSVTITCQASRDISSHLNWYQQKPGKAPELLIYYGSHLLSGVPSRFSGSGSGTDFTFTISSLEAEDAATYYCGQGNRLPYTFGQGTKVEIERTVAAPSVFIFPPSDEQLKSGTASVVCLLNNFYPREAKVQWKVDNALQSGNSQESVTEQDSKDSTYSLSSTLTLSKADYEKHKVYACEVTHQGLSSPVTKSFNRGEC

Kd [4]: 0.91 nM | koff [4]: 0.00055 s⁻¹ | kon [4]: 610000 M⁻¹ s⁻¹ | kd (pH 5.8)/kd (pH 7.4) [5]: 8.8 | koff [6]: 0.00037 s⁻¹ | koff [7]: 0.0032 s⁻¹
B3: Fv1-M73 (antibody)
heavy: QVQLQESGPGLVKPSETLSLTCAVSGYSISHDHAWSWVRQPPGEGLEWIGHISYSGITNYNPHLQDRVTISRDTSKNQFSLKLSSVTAADTAVYYCARFLARITAHDHWGEGTLVTVSSASTKGPSVFPLAPSSKSTSGGTAALGCLVKDYFPEPVTVSWNSGALTSGVHTFPAVLQSSGLYSLSSVVTVPSSNFGTQTYTCNVDHKPSNTKVDKTVERKSCVECPPCPAPPVAGPSVFLFPPKPKDTLMISRTPEVTCVVVDVSQEDPEVQFNWYVDGVEVHNAKTKPREEQFNSTFRVVSVLTVVHQDWLNGKEYKCKVSNKGLPAPIEKTISKTKGQPREPQVYTLPPSQEEMTKNQVSLTCLVKGFYPSDIAVEWESNGQPENNYKTTPPMLDSDGSFFLYSKLTVDKSRWQEGNVFSCSVMHEALHAHYTQKSLSLSP
light: B2 light with L55E

Kd [4]: 1.1 nM | koff [4]: 0.00082 s⁻¹ | kon [4]: 780000 M⁻¹ s⁻¹ | kd (pH 5.8)/kd (pH 7.4) [5]: 10.7 | koff [6]: 0.00091 s⁻¹ | koff [7]: 0.0097 s⁻¹
B4: Fv3-M71 (antibody, human IgG2, kappa)
heavy: QVQLQESGPGLVKPSETLSLTCAVSGHSISHDHAWSWVRQPPGEGLEWIGFISYSGITNYNPTLQGRVTISRDNSKNTLYLQMNSLRAEDTAVYYCARSLARTTAMDYWGEGTLVTVSSASTKGPSVFPLAPCSRSTSESTAALGCLVKDYFPEPVTVSWNSGALTSGVHTFPAVLQSSGLYSLSSVVTVPSSNFGTQTYTCNVDHKPSNTKVDKTVERKCCVECPPCPAPPVAGPSVFLFPPKPKDTLMISRTPEVTCVVVDVSHEDPEVQFNWYVDGVEVHNAKTKPREEQFNSTFRVVSVLTVVHQDWLNGKEYKCKVSNKGLPAPIEKTISKTKGQPREPQVYTLPPSREEMTKNQVSLTCLVKGFYPSDIAVEWESNGQPENNYKTTPPMLDSDGSFFLYSKLTVDKSRWQQGNVFSCSVMHEALHAHYTQKSLSLSPGK
light: B2 light

Kd [4]: 0.97 nM | koff [4]: 0.00054 s⁻¹ | kon [4]: 550000 M⁻¹ s⁻¹ | kd (pH 5.8)/kd (pH 7.4) [5]: 11.3 | koff [6]: 0.00061 s⁻¹ | koff [7]: 0.0069 s⁻¹
B5: Fv1-M71 (antibody, human IgG2, kappa)
heavy: QVQLQESGPGLVKPSETLSLTCAVSGYSISHDHAWSWVRQPPGEGLEWIGHISYSGITNYNPHLQDRVTISRDTSKNQFSLKLSSVTAADTAVYYCARFLARITAHDHWGEGTLVTVSSASTKGPSVFPLAPCSRSTSESTAALGCLVKDYFPEPVTVSWNSGALTSGVHTFPAVLQSSGLYSLSSVVTVPSSNFGTQTYTCNVDHKPSNTKVDKTVERKCCVECPPCPAPPVAGPSVFLFPPKPKDTLMISRTPEVTCVVVDVSHEDPEVQFNWYVDGVEVHNAKTKPREEQFNSTFRVVSVLTVVHQDWLNGKEYKCKVSNKGLPAPIEKTISKTKGQPREPQVYTLPPSREEMTKNQVSLTCLVKGFYPSDIAVEWESNGQPENNYKTTPPMLDSDGSFFLYSKLTVDKSRWQQGNVFSCSVMHEALHAHYTQKSLSLSPGK
light: B2 light with L55E
